Test results as given in article PMC4894451 (Scientific Reports, 2014).

Biological target: the molecule itself
Test: SEC

B1: DepH from Chromobacterium violaceum No. 968 (enzyme)
chain: not shown
stoichiometry N: 2
